Data reported in publication PMC4270772 (PLoS Pathogens, 2014).

Target: T1, recombinant trimeric gp140 from HIV-1 92UG037 (clade A) (HIV-1 92UG037 (clade A), UniProt Q5VFI3, strain)
T1 construct: source: provided by S. Jeffs (Imperial College London)
Assay: ELISA
Settings: both partners purified

B1: 3E3 with the three germ line CDR2 residues re-inserted (VHH)
VHH: EVQLVESGGGLVQPGGSLRLSCAASQFTLESYAIGWFRQAPGKDSEGVACISSSDGSTYYADSVKGRFTISRDNAKNTVYLQMESLKPEDTAVYHCATSGAGSYCTLRAFGSWGQGTQVTVSS
- binding result: no binding
